Assay results published in US20210189005A1 (RALLYBIO IPA, published 2021).
Read-outs that look alike come from different tables or passages of the source.

T1: GPVI (hDID2) negative control peptide (UniProt Q9HCN6 21-205)
T1 construct: domain: hDID2; also called peptide negative control
T1 sequence (looked up): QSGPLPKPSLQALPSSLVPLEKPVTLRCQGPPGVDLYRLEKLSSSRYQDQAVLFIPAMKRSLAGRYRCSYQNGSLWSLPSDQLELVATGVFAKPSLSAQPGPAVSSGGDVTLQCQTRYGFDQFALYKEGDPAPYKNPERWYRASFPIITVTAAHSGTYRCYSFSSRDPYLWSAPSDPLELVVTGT


Legend:
[1] = target: T2, integrin αIIbβ3 (glycoprotein IIbIIIa) bearing HPA-1a (Leu33) on intact HPA-1a-positive platelets (human, UniProt P08514 32-1039; P05106 27-788); test: MAIPA inhibition assay on HPA-1aa platelets; blocked antibodies: polyclonal anti-HPA-1a IgG of 10 donor sera
T2 construct: whole, on cells; HPA-1ab platelets carry both allotypes; results on them are marked in the row; also called HPA-1aa platelets; HPA-1a homozygous platelets

[2] = target: T3, purified integrin αIIbβ3 from HPA-1aa platelets (HPA-1a antigen carrying version) (human, UniProt P08514 32-1039; P05106 27-788); test: SPR (Biacore T200), integrin amine-coupled to CM5 chip, after 120 s dissociation
T3 construct: mature; Amine-coupled to a CM5 chip at 400 RU for SPR; also called αIIbβ3 (HPA-1a); αIIbβ3 from HPA-1aa individuals
Procedure: (§1) MAb samples were used in three different concentrations (20 μg/ml, 10 μg/ml and 5 μg/ml); the highest concentration is shown. Results are representative of the two independent experiments. […] Data presented are average RU generated by injection of three different concentrations of mAbs (20 μg/ml, 10 μg/ml and 5 g/ml). […] The percentage of antibody bound at the end of the dissociation phase was calculated by dividing the RU at the end of dissociation period by the RU at the end of association period multiplied by 100%. Data presented are average percentage calculated from three different concentrations for each mAb.
(§2) SPR technology was used to assess the binding properties of the mAbs (Biacore T200 instrument, Biacore AB, Uppsala, Sweden). […] The integrin αVβ3 was obtained from Millipore (cat. No: CC1018). The integrin αVβ3 was purified from human placenta by affinity chromatography using immobilized monoclonal antibodies to αVβ3 integrin. […] The purified βllbβ3 integrins (HPA-1a and HPA-1b antigen carrying versions) and αVβ3 were immobilized to the surface of a CM5 sensor chip on three different flow cells (FCs) at a density of 400, 340 and 480 response units (RU) respectively using standard amine coupling chemistry.

[3] = target: T4, integrin αVβ3 (vitronectin receptor) purified from human placenta (human, UniProt P06756 31-1048; P05106 27-788); test: as above
T4 construct: mature; Amine-coupled to a CM5 chip at 480 RU for SPR; also called purified αVβ3; Millipore CC1018
Procedure: as §1, §2

[4] = target: T3, purified integrin αIIbβ3 from HPA-1aa …; test: SPR (Biacore T200), integrin amine-coupled to CM5 chip, antibody injected 120 s
Procedure: (§3) The percentage of antibody bound at the end of the dissociation phase was calculated by dividing the RU at the end of dissociation period by the RU at the end of association period multiplied by 100%. Data presented are average percentage calculated from three different concentrations for each mAb.
(§4) SPR technology was used to assess the binding properties of the mAbs (Biacore T200 instrument, Biacore AB, Uppsala, Sweden). […] The purified βllbβ3 integrins (HPA-1a and HPA-1b antigen carrying versions) and αVβ3 were immobilized to the surface of a CM5 sensor chip on three different flow cells (FCs) at a density of 400, 340 and 480 response units (RU) respectively using standard amine coupling chemistry. An FC treated with the same chemicals but without protein was used as a reference surface. Purified monoclonal IgG samples (various concentrations) were injected over the chip surface at a flow rate of 30 μl/min. An association step of 120 sec was followed by a dissociation step of 120 sec. Regeneration of the sensor chip surface was accomplished using 10 mM Glycine-HCl (pH 1.5). The experiments were performed at 25° C. The collected data were analysed using BiaEvaluation 2.0.1 software. […] All chemicals for the Biacore experiment were purchased from GE Healthcare.

[5] = target: T4, integrin αVβ3 (vitronectin receptor) …; test: as above
Procedure: as §3, §4

[6] = target: T3, purified integrin αIIbβ3 from HPA-1aa …; test: SPR, 120 s dissociation, average of three concentrations
Procedure: as §1, §2

[7] = target: T4, integrin αVβ3 (vitronectin receptor) …; test: as above
Procedure: as §1, §2

[8] = target: T1, GPVI (hDID2) negative control peptide; test: domain-deletion peptide ELISA
Procedure: Murine and human mAbs were used at concentrations of 1 and 10 μg/ml. MAb binding was detected by HRP-conjugated goat-anti-mouse IgG or HRP-conjugated goat-anti-human IgG. Absorbance at 492 nm was read on an microplate photometer (Multiskan E X, Thermo Scientific, Waltham, Mass.).

[9] = target: T1, GPVI (hDID2) negative control peptide; test: domain-deletion peptide ELISA; remark: listed apart in the source

T4 sequence (P06756 31-1048, form in doubt, chain 1 of 2): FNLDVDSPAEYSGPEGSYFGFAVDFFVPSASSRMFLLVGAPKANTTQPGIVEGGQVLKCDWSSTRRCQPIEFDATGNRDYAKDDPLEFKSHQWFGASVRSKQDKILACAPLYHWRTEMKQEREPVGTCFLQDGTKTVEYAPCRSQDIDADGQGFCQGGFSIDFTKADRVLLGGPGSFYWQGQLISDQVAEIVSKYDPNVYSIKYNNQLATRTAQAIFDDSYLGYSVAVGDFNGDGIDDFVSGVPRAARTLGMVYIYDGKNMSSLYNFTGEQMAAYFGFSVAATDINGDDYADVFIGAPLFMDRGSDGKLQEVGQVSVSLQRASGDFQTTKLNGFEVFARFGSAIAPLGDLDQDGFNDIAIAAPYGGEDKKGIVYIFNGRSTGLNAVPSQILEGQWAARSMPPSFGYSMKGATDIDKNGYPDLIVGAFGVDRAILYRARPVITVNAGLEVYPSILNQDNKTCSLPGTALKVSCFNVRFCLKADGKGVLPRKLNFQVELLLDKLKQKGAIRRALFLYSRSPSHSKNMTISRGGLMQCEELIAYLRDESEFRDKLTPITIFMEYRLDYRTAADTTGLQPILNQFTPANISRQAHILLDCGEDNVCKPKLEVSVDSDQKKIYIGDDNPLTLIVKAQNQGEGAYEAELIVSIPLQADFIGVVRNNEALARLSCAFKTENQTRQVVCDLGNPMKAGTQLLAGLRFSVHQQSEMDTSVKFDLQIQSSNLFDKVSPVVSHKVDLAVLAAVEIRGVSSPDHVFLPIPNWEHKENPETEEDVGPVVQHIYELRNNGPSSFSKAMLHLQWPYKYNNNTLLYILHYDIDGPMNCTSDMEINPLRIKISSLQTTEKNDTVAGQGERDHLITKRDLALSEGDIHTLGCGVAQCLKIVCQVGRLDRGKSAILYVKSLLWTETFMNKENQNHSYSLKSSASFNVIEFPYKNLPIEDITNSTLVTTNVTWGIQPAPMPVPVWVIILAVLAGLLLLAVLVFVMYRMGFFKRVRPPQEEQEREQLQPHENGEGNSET
T4 sequence (P05106 27-788, form in doubt, chain 2 of 2): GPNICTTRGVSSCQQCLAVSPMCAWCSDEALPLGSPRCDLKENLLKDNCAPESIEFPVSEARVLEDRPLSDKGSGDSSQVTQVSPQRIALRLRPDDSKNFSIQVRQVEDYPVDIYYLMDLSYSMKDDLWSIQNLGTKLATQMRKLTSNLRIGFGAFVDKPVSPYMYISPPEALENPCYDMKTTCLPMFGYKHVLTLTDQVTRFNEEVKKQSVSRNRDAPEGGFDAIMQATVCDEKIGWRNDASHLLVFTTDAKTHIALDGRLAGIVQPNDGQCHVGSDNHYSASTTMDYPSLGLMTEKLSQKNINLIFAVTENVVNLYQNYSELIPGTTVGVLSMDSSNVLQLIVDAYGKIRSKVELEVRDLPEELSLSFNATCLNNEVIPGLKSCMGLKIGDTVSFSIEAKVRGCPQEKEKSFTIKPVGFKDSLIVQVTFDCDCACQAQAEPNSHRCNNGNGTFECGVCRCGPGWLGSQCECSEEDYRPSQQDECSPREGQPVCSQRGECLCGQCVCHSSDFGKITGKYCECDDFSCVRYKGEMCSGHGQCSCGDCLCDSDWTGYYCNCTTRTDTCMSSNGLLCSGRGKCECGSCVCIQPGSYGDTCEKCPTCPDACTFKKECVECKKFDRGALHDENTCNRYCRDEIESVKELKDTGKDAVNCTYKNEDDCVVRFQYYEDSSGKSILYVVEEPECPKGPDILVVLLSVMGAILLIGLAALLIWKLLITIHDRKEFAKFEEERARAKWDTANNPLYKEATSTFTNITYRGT
T3 sequence (P08514 32-1039, form in doubt, chain 1 of 2): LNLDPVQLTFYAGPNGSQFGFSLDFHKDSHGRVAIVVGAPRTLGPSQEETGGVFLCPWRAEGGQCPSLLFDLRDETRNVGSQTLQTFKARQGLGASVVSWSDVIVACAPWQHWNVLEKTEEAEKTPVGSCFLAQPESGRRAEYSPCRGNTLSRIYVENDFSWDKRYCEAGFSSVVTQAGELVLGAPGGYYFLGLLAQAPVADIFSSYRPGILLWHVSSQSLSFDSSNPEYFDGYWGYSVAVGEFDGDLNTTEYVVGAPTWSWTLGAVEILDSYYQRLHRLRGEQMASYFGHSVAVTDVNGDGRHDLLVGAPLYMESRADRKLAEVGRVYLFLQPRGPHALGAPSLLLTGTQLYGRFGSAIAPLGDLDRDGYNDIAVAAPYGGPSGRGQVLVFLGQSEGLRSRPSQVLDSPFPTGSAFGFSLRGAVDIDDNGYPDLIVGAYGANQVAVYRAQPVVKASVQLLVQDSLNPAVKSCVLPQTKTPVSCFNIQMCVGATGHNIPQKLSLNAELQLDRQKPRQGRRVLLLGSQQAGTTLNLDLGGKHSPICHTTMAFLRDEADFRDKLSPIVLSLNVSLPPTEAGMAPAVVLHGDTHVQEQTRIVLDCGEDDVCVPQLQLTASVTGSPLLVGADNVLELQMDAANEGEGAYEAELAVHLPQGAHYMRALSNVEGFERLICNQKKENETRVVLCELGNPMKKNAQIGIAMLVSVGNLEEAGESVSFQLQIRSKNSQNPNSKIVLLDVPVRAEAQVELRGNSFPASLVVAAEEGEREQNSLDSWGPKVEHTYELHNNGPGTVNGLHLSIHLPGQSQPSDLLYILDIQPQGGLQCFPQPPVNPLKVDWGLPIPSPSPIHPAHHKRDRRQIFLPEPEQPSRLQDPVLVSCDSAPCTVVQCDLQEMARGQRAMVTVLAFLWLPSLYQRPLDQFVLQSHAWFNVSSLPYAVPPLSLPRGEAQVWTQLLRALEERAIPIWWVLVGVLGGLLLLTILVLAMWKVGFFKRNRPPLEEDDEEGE
T3 sequence (P05106 27-788, form in doubt, chain 2 of 2): as the sequence (P05106 27-788, form in doubt, chain 2 of 2) above
T2 sequence (P08514 32-1039, chain 1 of 2): as the sequence (P08514 32-1039, form in doubt, chain 1 of 2) above
T2 sequence (P05106 27-788, chain 2 of 2): as the sequence (P05106 27-788, form in doubt, chain 2 of 2) above

| Binder | IC50 (read off the curve) [1] [µg/50 µl] | % dissociated [2] [%] | bound after dissociation (RU) [2] [RU] | % dissociated [3] [%] | bound after dissociation (RU) [3] [RU] | bound (RU) [4] [RU] | bound (RU) [5] [RU] | % remaining bound at the end of the dissociation period [6] [%] | % remaining bound at the end of the dissociation period [7] [%] | binding result [8] | binding result [9] |
| --- | --- | --- | --- | --- | --- | --- | --- | --- | --- | --- | --- |
| mAb 26.4 F(ab')2 fragment (other) VH: QVQLQQSGPGLVKPSQTLSLTCAISGDSVSSNSAAWNWIRQSPSRGLEWLGRTYFRSNWYNDYAASVKSRITINQDTSKNQLSLQLNSVTPEDTAMYYCARDGAWGGSSWWPGLPHHYYSGMDVWGQGTTVTVSS VL: EIVLTQSPATLSLSPGERATLSCRASQSVSSYLAWYQQKPGQAPRLLIYDASKRATGIPARFSGSGSGTDFSLTIRSLEPEDFAVYYCQQRSDWQGLTFGGGTKVEIK | ~5 |  |  |  |  |  |  |  |  |  |  |
| recombinant monoclonal antibody 26.4 IgG1 (antibody, also called 26.4G1) heavy: not shown light: EIVLTQSPATLSLSPGERATLSCRASQSVSSYLAWYQQKPGQAPRLLIYDASKRATGIPARFSGSGSGTDFSLTIRSLEPEDFAVYYCQQRSDWQGLTFGGGTKVEIKRTVAAPSVFIFPPSDEQLKSGTASVVCLLNNFYPREAKVQWKVDNALQSGNSQESVTEQDSKDSTYSLSSTLTLSKADYEKHKVYACEVTHQGLSSPVTKSFNRGEC |  | 21.4 | 49.6 | 35.1 | 12.2 | 63.1 | 18.8 | ~81 | 66.8 | no binding (tested: 10 µg/ml) |  |
| human HPA-1a-specific recombinant monoclonal antibody B2G1 (antibody, V domains shown, Generated by phage display and produced recombinantly as a human IgG detected by anti-human IgG; also called clone B2G1) VH: QVQLVQSGAEVKRPGAAVKVSCKASGYRFTGHYMHWVRQAPGQGLEWMGWINPNSGGTSYAQKFQGRVTMTRDTSISTAYMEMTRLRYDDTAVYYCAAGGLGGYYYYAMNIWGQGTTVTVSS VL: QSALTQPASVSGSPGQSITISCTGTSSDVGGYNYVSWYQQHPGKAPKLMIYEVSNRPSGVSNRFSGSKSGNTASLTISGLQAEDEADYYCSSYTSSSTWVFGGGTKLTVL |  | 22 | 43.8 | 70.5 | 3.3 | 56.1 | 11.2 | ~81 | 31.4 | no binding (tested: 10 µg/ml) |  |
| mouse monoclonal antibody SZ21 (antibody, V domains shown, Bought murine mAb; variable regions as in Genebank AF354053 and AF354054 (the printed entries look truncated at both ends); also called clone SZ21; anti-β3 mAb (clone SZ21)) VH: LQESGPELVNPGASMKISCKASGYSFTGYTMNWVKQSHGKNLEWIGLINPYHGGSSYNQKFKGKATLTVDKSSSTAYMELLSLTSEDSAVYFCARRDANYVFFFDYWGQGTTVT VL: ELTQSPALMSASPGEKVTMTCSASSGVSYIHWYQQKSGTSPKRWIYDTSKLASGVPARFSGSGSGTSYSLTISSMEAEDAATYYCQQWSSKPPTFGGGTKLE |  |  |  |  |  |  |  |  |  |  | no binding (tested: 10 µg/ml) |
